Earlier results in PMC10764639.

Target: TLR4 (Homo sapiens) (UniProt O00206)
Sequence of UniProt O00206 (O00206 24-839): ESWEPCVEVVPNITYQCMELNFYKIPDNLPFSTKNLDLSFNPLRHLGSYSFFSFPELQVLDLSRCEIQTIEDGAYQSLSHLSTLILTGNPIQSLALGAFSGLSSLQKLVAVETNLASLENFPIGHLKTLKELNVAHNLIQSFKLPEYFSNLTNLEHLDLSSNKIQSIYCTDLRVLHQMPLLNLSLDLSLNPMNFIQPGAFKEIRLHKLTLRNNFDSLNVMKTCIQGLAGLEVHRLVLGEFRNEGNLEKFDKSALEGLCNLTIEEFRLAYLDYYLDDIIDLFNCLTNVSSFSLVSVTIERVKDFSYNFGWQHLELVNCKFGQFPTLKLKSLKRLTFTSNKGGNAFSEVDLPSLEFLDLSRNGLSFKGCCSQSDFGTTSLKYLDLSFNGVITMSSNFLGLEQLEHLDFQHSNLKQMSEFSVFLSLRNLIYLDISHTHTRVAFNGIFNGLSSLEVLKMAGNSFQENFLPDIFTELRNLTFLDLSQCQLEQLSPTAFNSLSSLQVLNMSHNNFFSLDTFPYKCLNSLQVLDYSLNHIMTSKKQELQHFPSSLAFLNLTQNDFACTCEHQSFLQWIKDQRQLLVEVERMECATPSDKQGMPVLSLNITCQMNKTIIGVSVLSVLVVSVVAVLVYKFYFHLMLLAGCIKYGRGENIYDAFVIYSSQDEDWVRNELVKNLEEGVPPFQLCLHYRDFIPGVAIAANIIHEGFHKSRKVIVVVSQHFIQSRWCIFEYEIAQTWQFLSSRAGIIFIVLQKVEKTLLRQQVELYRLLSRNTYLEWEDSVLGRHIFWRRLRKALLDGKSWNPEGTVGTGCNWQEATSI

- Kd: 12 nM
Substance: HMGB1 (from UniProt P09429)
